Measured values published in patent US10227653B2, “High MAST2-affinity polypeptides and uses thereof” (INSTITUT PASTEUR, priority 2011, dated 2019).

Key:
[1] = target: T1, PDZ domain of the human MAST2 protein (MAST2-PDZ) (Homo sapiens, UniProt Q6P0Q8); assay: Isothermal Titration Calorimetry (ITC) with MAST2-PDZ; type: binding; details: 298 K, 50 mM Tris-HCl, 150 mM NaCl, pH7.5, read-out: Kd (μM) (dissociation constant) MAST2-PDZ
T1 sequence (Q6P0Q8 1101-1193 limits assumed): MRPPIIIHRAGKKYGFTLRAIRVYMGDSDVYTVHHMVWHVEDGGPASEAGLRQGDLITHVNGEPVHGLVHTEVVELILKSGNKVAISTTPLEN

[2] = target: T2, PDZ domain of the human PTPN4 protein (PTPN4-PDZ) (Homo sapiens, UniProt P29074); assay: ITC with PTPN4-PDZ; type: binding
T2 construct: the PDZ domain of the human PTPN4 protein
T2 sequence (P29074 517-589 limits assumed): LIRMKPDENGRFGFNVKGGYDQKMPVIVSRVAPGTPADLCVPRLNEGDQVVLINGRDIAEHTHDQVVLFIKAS
Procedure: The affinity of the polypeptides of the invention for the PDZ domain of the human PTPN4 protein is low, i.e., the constant of dissociation (KD) of the complex formed by the polypeptide of the invention with the PDZ domain of the human PTPN4 protein is high, in particular is more than 500 μM (for example as measured by ITC, in particular in the same conditions and with the same concentrations as for the MAST2-PDZ above).
ITC measurements were made using VP-ITC VP-ITC200 calorimeters (MicroCal). MAST2-PDZ was titrated at 298 K by injections of the polypeptides (25-45 consecutive aliquots of 5-7 μL at 6-min intervals). Raw data were normalized and corrected for heats of dilution of polypeptides. Equilibrium dissociation constants (KD) were determined performing nonlinear curve fitting of the corrected data to a model with one set of sites using the Origin7.0 software (OriginLab). All samples were prepared in a buffer containing 50 mM Tris-HCl, 150 mM NaCl, pH7.5. Data were recorded with MAST2-PDZ at an initial concentration of 30 μM and with peptide at initial concentrations ranging from 250 μM to 350 μM.

## ATT13: polypeptide ending with the MAST-2 binding domain […] (SEQ ID NO:235) (SWESHKSGGETRL; not fully specified)
[1]
  Kd: 0.57 µM
[2]
  Kd: 160 µM
